± gives the standard deviation of the averaged measurements.

This data set is described as follows: total protein half-life in vivo (active degradation + dilution); higher = more stable protein.
Where [1] appears, read: E. coli NCM3722 delta-clpP delta-lon delta-hslV, growth: N-lim chemostat, doubling time 6 h.
[2] abbreviates: E. coli NCM3722 delta-clpP, growth: N-lim chemostat, doubling time 6 h.
[3] abbreviates: E. coli NCM3722 delta-hslV, growth: N-lim chemostat, doubling time 6 h.
[4] abbreviates: E. coli NCM3722 delta-smpB, growth: N-lim chemostat, doubling time 6 h.
Where [5] appears, read: wild type E. coli NCM3722, growth: C-lim chemostat, doubling time 3 h.
The mark [6] stands for this setting: wild type E. coli NCM3722, growth: C-lim chemostat, doubling time 12 h.
The mark [7] stands for this setting: wild type E. coli NCM3722, growth: N-lim chemostat, doubling time 6 h.
The mark [8] stands for this setting: wild type E. coli NCM3722, growth: N-lim chemostat, doubling time 12 h.
The mark [9] stands for this setting: wild type E. coli NCM3722, growth: P-lim chemostat, doubling time 6 h.
Setting [10] is: wild type E. coli NCM3722, growth: P-lim chemostat, doubling time 12 h.
The mark [11] stands for this setting: E. coli NCM3722 delta-lon, growth: N-lim chemostat, doubling time 6 h.
Setting [12] is: wild type E. coli NCM3722, growth: C-lim chemostat, doubling time 6 h.

As to “MDTPRPQLLDFQFHQNNDSFTLHFQQRLILTHSKDNPCLWIGSGIADIDMFRGNFSIKDKLQEKIALTDAIVSQSPDGWLIHFSRGSDISATLNISADDQGRLLLELQNDNLNHNRIWLRLAAQPEDHIYGCGEQFSYFDLRGKPFPLWTSEQGVGRNKQTYVTWQADCKENAGGDYYWTFFPQPTFVSTQKYYCHVDNSCYMNFDFSAPEYHELALWEDKATLRFECADTYISLLEKLTALLGRQPELPDWIYDGVTLGIQGGTEVCQKKLDTMRNAGVKVNGIWAQDWSGIRMTSFGKRVMWNWKWNSENYPQLDSRIKQWNQEGVQFLAYINPYVASDKDLCEEAAQHGYLAKDASGGDYLVEFGEFYGGVVDLTNPEAYAWFKEVIKKNMIELGCGGWMADFGEYLPTDTYLHNGVSAEIMHNAWPALWAKCNYEALEETGKLGEILFFMRAGSTGSQKYSTMMWAGDQNVDWSLDDGLASVVPAALSLAMTGHGLHHSDIGGYTTLFEMKRSKELLLRWCDFSAFTPMMRTHEGNRPGDNWQFDGDAETIAHFARMTTVFTTLKPYLKEAVALNAKSGLPVMRPLFLHYEDDAHTYTLKYQYLLGRDILVAPVHEEGRSDWTLYLPEDNWVHAWTGEAFRGGEVTVNAPIGKPPVFYRADSEWAALFASLKSI”, the “total protein half-life in vivo” value runs as follows: under setting [1], 5.5 h; under setting [2], 4.66 ± 0.079 h; under setting [3], 4.79 ± 0.52 h; under setting [4], 4.78 ± 0.19 h; under setting [5], 3.06 ± 0.37 h; under setting [6], 12.6 ± 3.2 h. Besides, the “total protein half-life in vivo” value under setting [7] is 4.02 h, the “total protein half-life in vivo” value under setting [8] was 7.22 h, the “total protein half-life in vivo” value under setting [9] turned out to be 5.4 ± 0.092 h and the “total protein half-life in vivo” value under setting [10] was 10.4 ± 0.25 h.
For “MSLISMHGAWLSFSDAPLLDNAELHIEDNERVCLVGRNGAGKSTLMKILNREQGLDDGRIIYEQDLIVARLQQDPPRNVEGSVYDFVAEGIEEQAEYLKRYHDISRLVMNDPSEKNLNELAKVQEQLDHHNLWQLENRINEVLAQLGLDPNVALSSLSGGWLRKAALGRALVSNPRVLLLDEPTNHLDIETIDWLEGFLKTFNGTIIFISHDRSFIRNMATRIVDLDRGKLVTYPGNYDQYLLEKEEALRVEELQNAEFDRKLAQEEVWIRQGIKARRTRNEGRVRALKAMRRERGERREVMGTAKMQVEEASRSGKIVFEMEDVCYQVNGKQLVKDFSAQVLRGDKIALIGPNGCGKTTLLKLMLGQLQADSGRIHVGTKLEVAYFDQHRAELDPDKTVMDNLAEGKQEVMVNGKPRHVLGYLQDFLFHPKRAMTPVRALSGGERNRLLLARLFLKPSNLLILDEPTNDLDVETLELLEELIDSYQGTVLLVSHDRQFVDNTVTECWIFEGGGKIGRYVGGYHDARGQQEQYVALKQPAVKKTEEAAAAKAETVKRSSSKLSYKLQRELEQLPQLLEDLEAKLEALQTQVADASFFSQPHEQTQKVLADMAAAEQELEQAFERWEYLEALKNGG”, the “total protein half-life in vivo” value was determined as 4.79 ± 0.63 h under setting [1]; 5.1 ± 0.79 h under setting [2]; 4.73 ± 0.16 h under setting [3]; 4.8 ± 0.17 h under setting [11]; 4.38 ± 0.62 h under setting [4]; 3.41 ± 0.18 h under setting [5]. In addition, the “total protein half-life in vivo” value by setting is: under setting [12], 5.82 ± 0.35 h; under setting [6], 10.4 ± 1.5 h; under setting [7], 4.37 ± 0.087 h; under setting [8], 7.15 ± 0.13 h; under setting [9], 5.42 ± 0.33 h; under setting [10], 9.51 ± 0.35 h.
With “MKNTELEQLINEKLNSAAISDYAPNGLQVEGKETVQKIVTGVTASQALLDEAVRLGADAVIVHHGYFWKGESPVIRGMKRNRLKTLLANDINLYGWHLPLDAHPELGNNAQLAALLGITVMGEIEPLVPWGELTMPVPGLELASWIEARLGRKPLWCGDTGPEVVQRVAWCTGGGQSFIDSAARFGVDAFITGEVSEQTIHSAREQGLHFYAAGHHATERGGIRALSEWLNENTDLDVTFIDIPNPA [P0AFP6]”, the “total protein half-life in vivo” value under setting [1] came to 4.31 ± 0.15 h; the “total protein half-life in vivo” value under setting [2] was 3.736 ± 0.0077 h; the “total protein half-life in vivo” value under setting [3] amounted to 3.9 ± 0.38 h; the “total protein half-life in vivo” value under setting [11] is 4.42 ± 0.65 h; the “total protein half-life in vivo” value under setting [4] was found to be 3.7 ± 0.28 h; the “total protein half-life in vivo” value under setting [5] worked out at 2.86 ± 0.27 h. The “total protein half-life in vivo” value reads like this: under setting [12], 6.13 ± 0.52 h; under setting [6], 10.3 ± 0.29 h; under setting [7], 3.66 ± 0.23 h; under setting [8], 5.74 ± 0.75 h; under setting [9], 5.26 ± 0.41 h; under setting [10], 11.2 ± 1.2 h.
With “MNQSYGRLVSRAAIAATAMASLLLLIKIFAWWYTGSVSILAALVDSLVDIGASLTNLLVVRYSLQPADDNHSFGHGKAESLAALAQSMFISGSALFLFLTGIQHLISPTPMTDPGVGVIVTIVALICTIILVSFQRWVVRRTQSQAVRADMLHYQSDVMMNGAILLALGLSWYGWHRADALFALGIGIYILYSALRMGYEAVQSLLDRALPDEERQEIIDIVTSWPGVSGAHDLRTRQSGPTRFIQIHLEMEDSLPLVQAHMVADQVEQAILRRFPGSDVIIHQDPCSVVPREGKRSMLS”, the “total protein half-life in vivo” value by setting is: under setting [6], 14.3 h; under setting [7], 6.34 h; under setting [9], 5.52 h.
On to “MFNRPNRNDVDDGVQDIQNDVNQLADSLESVLKSWGSDAKGEAEAARSKAQALLKETRARMHGRTRVQQAARDAVGCADSFVRERPWCSVGTAAAVGIFIGALLSMRKS [P0ADQ7]”, for which the “total protein half-life in vivo” value runs as follows: under setting [1], 5.92 ± 0.068 h; under setting [3], 7.51 ± 0.67 h; under setting [4], 4.83 ± 0.087 h; under setting [5], 2.37 ± 0.46 h; under setting [12], 5.79 ± 0.34 h; under setting [6], 9.97 ± 1.7 h. Further, the “total protein half-life in vivo” value under setting [7] was 5.55 ± 0.094 h, the “total protein half-life in vivo” value under setting [8] came out at 11.3 ± 1.4 h, the “total protein half-life in vivo” value under setting [9] came to 5.17 ± 0.21 h and the “total protein half-life in vivo” value under setting [10] came out at 10.8 ± 0.18 h.
“MSQRITIDPVTRIEGHLRIDCEIENGVVSKAWASGTMWRGMEEIVKNRDPRDAWMIVQRICGVCTTTHALSSVRAAESALNIDVPVNAQYIRNIILAAHTTHDHIVHFYQLSALDWVDITSALQADPTKASEMLKGVSTWHLNSPEEFTKVQNKIKDLVASGQLGIFANGYWGHPAMKLPPEVNLIAVAHYLQALECQRDANRVVALLGGKTPHIQNLAVGGVANPINLDGLGVLNLERLMYIKSFIDKLSDFVEQVYKVDTAVIAAFYPEWLTRGKGAVNYLSVPEFPTDSKNGSFLFPGGYIENADLSSYRPITSHSDEYLIKGIQESAKHSWYKDEAPQAPWEGTTIPAYDGWSDDGKYSWVKSPTFYGKTVEVGPLANMLVKLAAGRESTQNKLNEIVAIYQKLTGNTLEVAQLHSTLGRIIGRTVHCCELQDILQNQYSALITNIGKGDHTTFVKPNIPATGEFKGVGFLEAPRGMLSHWMVIKDGIISNYQAVVPSTWNSGPRNFNDDVGPYEQSLVGTPVADPNKPLEVVRTIHSFDPCMACAVHVVDADGNEVVSVKVL [P0ACE0]”: the “total protein half-life in vivo” value under setting [1] amounted to 5.01 ± 1.1 h; the “total protein half-life in vivo” value under setting [2] was found to be 4.55 ± 1.2 h; the “total protein half-life in vivo” value under setting [3] turned out to be 3.87 ± 1.6 h; the “total protein half-life in vivo” value under setting [4] was 2.6 ± 0.2 h; the “total protein half-life in vivo” value under setting [5] stood at 2.07 ± 0.18 h; the “total protein half-life in vivo” value under setting [12] came to 4.37 ± 1 h. The “total protein half-life in vivo” value under setting [6] is 7.59 ± 2.3 h; the “total protein half-life in vivo” value under setting [7] turned out to be 3.47 ± 0.036 h; the “total protein half-life in vivo” value under setting [8] stood at 4.62 h; the “total protein half-life in vivo” value under setting [9] is 4.92 ± 2.1 h; the “total protein half-life in vivo” value under setting [10] worked out at 10.7 ± 4.1 h.
Turning to “MRLPIFLDTDPGIDDAVAIAAAIFAPELDLQLMTTVAGNVSVEKTTRNALQLLHFWNAEIPLAQGAAVPLVRAPRDAASVHGESGMAGYDFVEHNRKPLGIPAFLAIRDALMRAPEPVTLVAIGPLTNIALLLSQCPECKPYIRRLVIMGGSAGRGNCTPNAEFNIAADPEAAACVFRSGIEIVMCGLDVTNQAILTPDYLSTLPQLNRTGKMLHALFSHYRSGSMQSGLRMHDLCAIAWLVRPDLFTLKPCFVAVETQGEFTSGTTVVDIDGCLGKPANVQVALDLDVKGFQQWVAEVLALAS”, the “total protein half-life in vivo” value worked out at 4.86 ± 1.4 h under setting [1]; 4.75 h under setting [2]; 4.13 h under setting [11]; 3.64 h under setting [4]; 2.8 ± 0.15 h under setting [5]; 5.62 ± 0.1 h under setting [12]. For the same sequence, the “total protein half-life in vivo” value runs as follows: under setting [6], 9.27 ± 3.1 h; under setting [7], 3.89 h; under setting [8], 11.1 h; under setting [10], 8.95 ± 3.1 h.
